From the supplement of paper PMC9112550, “Optimization of the antimicrobial peptide Bac7 by deep mutational scanning” (BMC Biology, 2022)

Test system: Escherichia coli TOP10
Assay: shrunken log2 fold change of peptide-encoding DNA abundance (4.5 h post-induction vs induction); higher = less antimicrobial activity (less host growth inhibition)
Details: time post-induction: 4.5 h; library: site-saturation at positions 5, 18, 19, 20
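Note: peptides expressed intracellularly from a pBAD plasmid library in pooled LB shake-flask culture, induced with 0.3% L-arabinose, DNA abundance read by NGS, three biological replicates, DESeq2 with apeglm shrinkage.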

| Sequence | shrunken log2 fold change |
| --- | --- |
| RRIRLRPPRLPRPRPRPAKQPRP | 0.0963 |
| RRIRYRPPRLPRPRPRPNQWPRP | 0.00192 |
| RRIRARPPRLPRPRPRPAAGPRP | 0.78 |
| RRIRTRPPRLPRPRPRPEYRPRP | 0.0555 |
| RRIRFRPPRLPRPRPRPAFSPRP | 0.049 |
| RRIRNRPPRLPRPRPRPGESPRP | -0.111 |
| RRIRCRPPRLPRPRPRPQYDPRP | -0.644 |
| RRIRQRPPRLPRPRPRPCFSPRP | -0.0347 |
| RRIRFRPPRLPRPRPRPFDEPRP | -0.983 |
| RRIRMRPPRLPRPRPRPCQRPRP | 0.0132 |
| RRIRFRPPRLPRPRPRPPCHPRP | -0.0556 |
| RRIRERPPRLPRPRPRPPHDPRP | 0.0906 |
| RRIRNRPPRLPRPRPRPPDCPRP | 0.036 |
| RRIRDRPPRLPRPRPRPQLEPRP | -0.0748 |
| RRIRCRPPRLPRPRPRPQKVPRP | -0.127 |
| RRIRPRPPRLPRPRPRPPDWPRP | 0.577 |
| RRIRSRPPRLPRPRPRPEPFPRP | 0.621 |
| RRIRYRPPRLPRPRPRPFVAPRP | -0.696 |
| RRIRMRPPRLPRPRPRPTFCPRP | 0.282 |
| RRIRGRPPRLPRPRPRPSARPRP | 1.1 |
| RRIRRRPPRLPRPRPRPMHCPRP | 0.505 |
| RRIRFRPPRLPRPRPRPNATPRP | 0.0167 |
| RRIRPRPPRLPRPRPRPCHHPRP | -0.536 |

| Sequence | shrunken log2 fold change |
| --- | --- |
| RRIRARPPRLPRPRPRPIMQPRP | -0.0531 |
| RRIRHRPPRLPRPRPRPNYNPRP | -0.89 |
| RRIRERPPRLPRPRPRPIVYPRP | 0.0176 |
| RRIRKRPPRLPRPRPRPNATPRP | 1.16 |
| RRIRTRPPRLPRPRPRPFGTPRP | -0.107 |
| RRIRPRPPRLPRPRPRPRLIPRP | 0.292 |
| RRIRIRPPRLPRPRPRPFFDPRP | -0.417 |
| RRIRERPPRLPRPRPRPCNAPRP | -0.0483 |
| RRIRMRPPRLPRPRPRPEPEPRP | 2.64 |
| RRIRRRPPRLPRPRPRPLGPPRP | 0.304 |
| RRIRKRPPRLPRPRPRPKRIPRP | 0.0395 |
| RRIRLRPPRLPRPRPRPKPTPRP | 0.15 |
| RRIRLRPPRLPRPRPRPKSTPRP | -0.222 |
| RRIRTRPPRLPRPRPRPMNTPRP | -0.609 |
| RRIRPRPPRLPRPRPRPDHSPRP | -0.082 |
| RRIRHRPPRLPRPRPRPPQDPRP | 0.0355 |
| RRIRNRPPRLPRPRPRPIVNPRP | 0.0189 |
| RRIRDRPPRLPRPRPRPRGEPRP | 0.267 |
| RRIRVRPPRLPRPRPRPQCAPRP | 0.135 |
| RRIRDRPPRLPRPRPRPQPNPRP | 0.072 |
| RRIRMRPPRLPRPRPRPEMVPRP | 0.0598 |
| RRIRWRPPRLPRPRPRPFRCPRP | -0.257 |
| RRIRCRPPRLPRPRPRPHEMPRP | -0.0763 |

| Sequence | shrunken log2 fold change |
| --- | --- |
| RRIRTRPPRLPRPRPRPTYRPRP | -0.0768 |
| RRIRCRPPRLPRPRPRPKTYPRP | -0.48 |
| RRIRKRPPRLPRPRPRPCQMPRP | -0.0362 |
| RRIRDRPPRLPRPRPRPAALPRP | 0.488 |
| RRIRFRPPRLPRPRPRPHLDPRP | -0.275 |
| RRIRLRPPRLPRPRPRPYEPPRP | -0.0278 |
| RRIRSRPPRLPRPRPRPEWNPRP | 0.119 |
| RRIRLRPPRLPRPRPRPSYDPRP | -0.292 |
| RRIRPRPPRLPRPRPRPQLRPRP | -0.0759 |
| RRIRKRPPRLPRPRPRPHVLPRP | 0.0607 |
| RRIRLRPPRLPRPRPRPCVYPRP | -0.352 |
| RRIRYRPPRLPRPRPRPRNNPRP | -0.738 |
| RRIRLRPPRLPRPRPRPYMPPRP | -0.509 |
| RRIRFRPPRLPRPRPRPDGYPRP | 0.028 |
| RRIRQRPPRLPRPRPRPIREPRP | -0.0225 |
| RRIRCRPPRLPRPRPRPHRRPRP | -0.167 |
| RRIRSRPPRLPRPRPRPTGCPRP | 0.159 |
| RRIRTRPPRLPRPRPRPKCWPRP | 1.72 |
| RRIRRRPPRLPRPRPRPEHLPRP | 0.242 |
| RRIRDRPPRLPRPRPRPNSDPRP | -0.272 |
| RRIRPRPPRLPRPRPRPVWHPRP | 0.186 |
| RRIRPRPPRLPRPRPRPEIDPRP | -0.0829 |
| RRIRMRPPRLPRPRPRPSDMPRP | 0.0637 |

| Sequence | shrunken log2 fold change |
| --- | --- |
| RRIRWRPPRLPRPRPRPHTVPRP | 0.00981 |
| RRIRHRPPRLPRPRPRPWKEPRP | -0.0223 |
| RRIRVRPPRLPRPRPRPKWRPRP | 0.327 |
| RRIRDRPPRLPRPRPRPNQMPRP | -0.0987 |
| RRIRMRPPRLPRPRPRPKCRPRP | 0.0493 |
| RRIRMRPPRLPRPRPRPRNHPRP | 0.263 |
| RRIRRRPPRLPRPRPRPYPQPRP | -0.0454 |
| RRIRWRPPRLPRPRPRPCELPRP | 0.0544 |
| RRIRFRPPRLPRPRPRPRNWPRP | 0.19 |
| RRIRWRPPRLPRPRPRPVEYPRP | -0.00674 |
| RRIRRRPPRLPRPRPRPCHHPRP | -0.0387 |
| RRIRNRPPRLPRPRPRPMYMPRP | -0.05 |
| RRIRGRPPRLPRPRPRPWHEPRP | -0.357 |
| RRIRYRPPRLPRPRPRPIGCPRP | 0.225 |
| RRIRWRPPRLPRPRPRPTDGPRP | 0.32 |
| RRIRDRPPRLPRPRPRPRSKPRP | 0.401 |
| RRIRWRPPRLPRPRPRPEMDPRP | 0.7 |
| RRIRMRPPRLPRPRPRPHWMPRP | -0.137 |
| RRIRNRPPRLPRPRPRPLPTPRP | -0.0778 |
| RRIRIRPPRLPRPRPRPVENPRP | -0.0976 |
| RRIRERPPRLPRPRPRPGENPRP | 0.00425 |
| RRIRSRPPRLPRPRPRPICYPRP | -0.475 |
| RRIRTRPPRLPRPRPRPSGYPRP | -0.256 |

| Sequence | shrunken log2 fold change |
| --- | --- |
| RRIRWRPPRLPRPRPRPMDKPRP | -0.194 |
| RRIRSRPPRLPRPRPRPESIPRP | -0.397 |
| RRIRSRPPRLPRPRPRPFMLPRP | -0.411 |
| RRIRMRPPRLPRPRPRPHSCPRP | 0.0321 |
| RRIRRRPPRLPRPRPRPMCNPRP | 0.0275 |
| RRIRYRPPRLPRPRPRPPKDPRP | 0.0611 |
| RRIRHRPPRLPRPRPRPWQLPRP | -0.016 |
| RRIRIRPPRLPRPRPRPHAWPRP | 0.0947 |
| RRIRVRPPRLPRPRPRPSERPRP | -0.0442 |
| RRIRNRPPRLPRPRPRPSDIPRP | 0.0588 |
| RRIRARPPRLPRPRPRPFPHPRP | 0.146 |
| RRIRMRPPRLPRPRPRPGVGPRP | 0.841 |
| RRIRCRPPRLPRPRPRPDDPPRP | 0.0647 |
| RRIRKRPPRLPRPRPRPGTSPRP | 0.0376 |
| RRIRHRPPRLPRPRPRPHGHPRP | 0.219 |
| RRIRARPPRLPRPRPRPGSAPRP | 0.444 |
| RRIRKRPPRLPRPRPRPDYCPRP | 0.0953 |
| RRIRMRPPRLPRPRPRPPRYPRP | 1.71 |
| RRIRSRPPRLPRPRPRPWSNPRP | -0.0394 |
| RRIRRRPPRLPRPRPRPHNAPRP | 2.48 |
